Data set [1] concerns HeLa Kyoto. Put plainly: thermal stability score vs G1/S (z-score of summed log2 fold changes over temperatures); higher = more thermally stable than in G1/S.
The test system of data set [2] is HeLa Kyoto. Description: solubility in G1/S (NP-40 vs SDS abundance) (log2 ratio); higher = more soluble. The following applies: cell cycle stage: G1/S.
The test system of data set [3] is HeLa Kyoto. Put plainly: solubility change mitosis vs G1/S (difference of NP-40 vs SDS log2 ratios) (log2 ratio difference); higher = more soluble in mitosis.
The mark [4] stands for this setting: cell cycle stage: early G1 (4.5 h after nocodazole release).
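Throughout, for solubility change mitosis vs G1/S (difference of NP-40 vs SDS log2 ratios): synchronized HeLa Kyoto cells (double thymidine block for G1/S, nocodazole release for mitosis), protein amounts in NP-40 versus SDS lysates quantified by mass spectrometry, three biological replicates.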
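Throughout, for solubility in G1/S (NP-40 vs SDS abundance): HeLa Kyoto cells arrested at G1/S by double thymidine block, proteins quantified by TMT10plex mass spectrometry in mild NP-40 versus SDS extracts, three biological replicates.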
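Throughout, for thermal stability score vs G1/S (z-score of summed log2 fold changes over temperatures): synchronized HeLa Kyoto cells, proteins quantified by TMT10plex mass spectrometry, three biological replicates, mitosis taken 0.5 h after nocodazole release, G1/S directly after double thymidine block.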

“MQRAAALVRRGCGPRTPSSWGRSQSSAAAEASAVLKVRPERSRRERILTLESMNPQVKAVEYAVRGPIVLKAGEIELELQRGIKKPFTEVIRANIGDAQAMGQQPITFLRQVMALCTYPNLLDSPSFPEDAKKRARRILQACGGNSLGSYSASQGVNCIREDVAAYITRRDGGVPADPDNIYLTTGASDGISTILKILVSGGGKSRTGVMIPIPQYPLYSAVISELDAIQVNYYLDEENCWALNVNELRRAVQEAKDHCDPKVLCIINPGNPTGQVQSRKCIEDVIHFAWEEKLFLLADEVYQDNVYSPDCRFHSFKKVLYEMGPEYSSNVELASFHSTSKGYMGECGYRGGYMEVINLHPEIKGQLVKLLSVRLCPPVSGQAAMDIVVNPPVAGEESFEQFSREKESVLGNLAKKAKLTEDLFNQVPGIHCNPLQGAMYAFPRIFIPAKAVEAAQAHQMAPDMFYCMKLLEETGICVVPGSGFGQREGTYHFRMTILPPVEKLKTVLQKVKDFHINFLEKYA [GPT2]”: the values for the thermal stability score in the data set with HeLa Kyoto [1] (setting [4]) and in the data set with HeLa Kyoto [1] (cell cycle stage: mitosis) were -0.2 and -0.215, respectively. The “solubility in G1/S (log2)” value in the data set on HeLa Kyoto [2] is 0.0799. Besides, the “solubility change mitosis (log2)” value in the data set on HeLa Kyoto [3] was 0.017.
The like results for “MQSKVTGNMPTQSLLMYMDGPEVIGSSLGSPMEMEDALSMKGTAVVPFRATQEKNVIQIEGYMPLDCMFCSQTFTHSEDLNKHVLMQHRPTLCEPAVLRVEAEYLSPLDKSQVRTEPPKEKNCKENEFSCEVCGQTFRVAFDVEIHMRTHKDSFTYGCNMCGRRFKEPWFLKNHMRTHNGKSGARSKLQQGLESSPATINEVVQVHAAESISSPYKICMVCGFLFPNKESLIEHRKVHTKKTAFGTSSAQTDSPQGGMPSSREDFLQLFNLRPKSHPETGKKPVRCIPQLDPFTTFQAWQLATKGKVAICQEVKESGQEGSTDNDDSSSEKELGETNKGSCAGLSQEKEKCKHSHGEAPSVDADPKLPSSKEKPTHCSECGKAFRTYHQLVLHSRVHKKDRRAGAESPTMSVDGRQPGTCSPDLAAPLDENGAVDRGEGGSEDGSEDGLPEGIHLDKNDDGGKIKHLTSSRECSYCGKFFRSNYYLNIHLRTHTGEKPYKCEFCEYAAAQKTSLRYHLERHHKEKQTDVAAEVKNDGKNQDTEDALLTADSAQTKNLKRFFDGAKDVTGSPPAKQLKEMPSVFQNVLGSAVLSPAHKDTQDFHKNAADDSADKVNKNPTPAYLDLLKKRSAVETQANNLICRTKADVTPPPDGSTTHNLEVSPKEKQTETAADCRYRPSVDCHEKPLNLSVGALHNCPAISLSKSLIPSITCPFCTFKTFYPEVLMMHQRLEHKYNPDVHKNCRNKSLLRSRRTGCPPALLGKDVPPLSSFCKPKPKSAFPAQSKSLPSAKGKQSPPGPGKAPLTSGIDSSTLAPSNLKSHRPQQNVGVQGAATRQQQSEMFPKTSVSPAPDKTKRPETKLKPLPVAPSQPTLGSSNINGSIDYPAKNDSPWAPPGRDYFCNRSASNTAAEFGEPLPKRLKSSVVALDVDQPGANYRRGYDLPKYHMVRGITSLLPQDCVYPSQALPPKPRFLSSSEVDSPNVLTVQKPYGGSGPLYTCVPAGSPASSSTLEGKRPVSYQHLSNSMAQKRNYENFIGNAHYRPNDKKT [ZNF217]” were, in that order, -1.13, -0.808, -0.201 and 0.0502.
The like results for “MSDILRELLCVSEKAANIARACRQQEALFQLLIEEKKEGEKNKKFAVDFKTLADVLVQEVIKQNMENKFPGLEKNIFGEESNEFTNDWGEKITLRLCSTEEETAELLSKVLNGNKVASEALARVVHQDVAFTDPTLDSTEINVPQDILGIWVDPIDSTYQYIKGSADIKSNQGIFPCGLQCVTILIGVYDIQTGVPLMGVINQPFVSRDPNTLRWKGQCYWGLSYMGTNMHSLQLTISRRNGSETHTGNTGSEAAFSPSFSAVISTSEKETIKAALSRVCGDRIFGAAGAGYKSLCVVQGLVDIYIFSEDTTFKWDSCAAHAILRAMGGGIVDLKECLERNPETGLDLPQLVYHVENEGAAGVDRWANKGGLIAYRSRKRLETFLSLLVQNLAPAETHT [INPP1]” were, in that order, 0.000408, -0.083, 0.0309 and -0.114.
The like results for “MSFNLQSSKKLFIFLGKSLFSLLEAMIFALLPKPRKNVAGEIVLITGAGSGLGRLLALQFARLGSVLVLWDINKEGNEETCKMAREAGATRVHAYTCDCSQKEGVYRVADQVKKEVGDVSILINNAGIVTGKKFLDCPDELMEKSFDVNFKAHLWTYKAFLPAMIANDHGHLVCISSSAGLSGVNGLADYCASKFAAFGFAESVFVETFVQKQKGIKTTIVCPFFIKTGMFEGCTTGCPSLLPILEPKYAVEKIVEAILQEKMYLYMPKLLYFMMFLKSFLPLKTGLLIADYLGILHAMDGFVDQKKKL [SDR16C5]” were, in that order, 0.864, -0.987, -0.478 and -0.0428.
“MSQGILSPPAGLLSDDDVVVSPMFESTAADLGSVVRKNLLSDCSVVSTSLEDKQQVPSEDSMEKVKVYLRVRPLLPSELERQEDQGCVRIENVETLVLQAPKDSFALKSNERGIGQATHRFTFSQIFGPEVGQASFFNLTVKEMVKDVLKGQNWLIYTYGVTNSGKTHTIQGTIKDGGILPRSLALIFNSLQGQLHPTPDLKPLLSNEVIWLDSKQIRQEEMKKLSLLNGGLQEEELSTSLKRSVYIESRIGTSTSFDSGIAGLSSISQCTSSSQLDETSHRWAQPDTAPLPVPANIRFSIWISFFEIYNELLYDLLEPPSQQRKRQTLRLCEDQNGNPYVKDLNWIHVQDAEEAWKLLKVGRKNQSFASTHLNQNSSRSHSIFSIRILHLQGEGDIVPKISELSLCDLAGSERCKDQKSGERLKEAGNINTSLHTLGRCIAALRQNQQNRSKQNLVPFRDSKLTRVFQGFFTGRGRSCMIVNVNPCASTYDETLHVAKFSAIASQLVHAPPMQLGFPSLHSFIKEHSLQVSPSLEKGAKADTGLDDDIENEADISMYGKEELLQVVEAMKTLLLKERQEKLQLEMHLRDEICNEMVEQMQQREQWCSEHLDTQKELLEEMYEEKLNILKESLTSFYQEEIQERDEKIEELEALLQEARQQSVAHQQSGSELALRRSQRLAASASTQQLQEVKAKLQQCKAELNSTTEELHKYQKMLEPPPSAKPFTIDVDKKLEEGQKNIRLLRTELQKLGESLQSAERACCHSTGAGKLRQALTTCDDILIKQDQTLAELQNNMVLVKLDLRKKAACIAEQYHTVLKLQGQVSAKKRLGTNQENQQPNQQPPGKKPFLRNLLPRTPTCQSSTDCSPYARILRSRRSPLLKSGPFGKKY [KIF20A]”: the thermal stability score with HeLa Kyoto [1] (setting [4]) was 0.449; in the data set with HeLa Kyoto [1] (cell cycle stage: mitosis) it was 3.61. For the same sequence, the “solubility in G1/S (log2)” value in the data set on HeLa Kyoto [2] is -0.582. In addition, in the data set with HeLa Kyoto [3], the “solubility change mitosis (log2)” value is -0.0791.

The record behind these values is the supplement of paper PMC5998384.
